From paper PMC3279196 (Journal of Molecular Biology, 2011) come the findings set out here.

Like-named read-outs stand apart in the source and are kept apart here.

Broadly, the stoichiometry N is a count of units in the complex or per binding partner. A word on the Kd: it is the constant that tells how readily two partners part at equilibrium.

Data set [1] deals with the molecule itself. Kind of data set: static light scattering.
In data set [2] the target is T1, CheW from Thermotoga maritima (T. maritima, UniProt Q56311 1-151).
T1 sequence (looked up): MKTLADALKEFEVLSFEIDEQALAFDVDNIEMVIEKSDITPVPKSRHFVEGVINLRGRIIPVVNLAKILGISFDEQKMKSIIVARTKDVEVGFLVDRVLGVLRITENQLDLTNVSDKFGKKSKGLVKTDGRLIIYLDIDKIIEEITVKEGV
Briefly: NMR titration.

For data set [3], the target named is T1, CheW from Thermotoga maritima. Briefly: NMR titration. This is another data set of the same source.

B1: TM0014(90-206) with N-terminal tyrosine and His5 tag (domain or fragment, T. maritima, UniProt Q7DFA3 90-206, looked up)
chain: KSGTNVDQIVERVKEASSQIGETLENIRSIEKLIQNIMRIARETNILALNATIEAARAGEAGKGFMIVANEVQNLSNETNEVTKQIVEKAREILESSQRSLENLEFMANLFETVGKT
Take B1: the “stoichiometry N” value in data set [1] turned out to be 2. Besides, the values for the Kd in data set [2] and in data set [3] were around 300 µM and around 1200 µM, respectively.
